From patent US20240343803A1 (SHANDONG SIMCERE BIOPHARMACEUTICAL, published 2024)

T1: human PVRIG on FlpinCHO-PVRIG cells (human, UniProt Q6DKI7 41-326)
T1 construct: whole, on cells
T1 sequence (looked up): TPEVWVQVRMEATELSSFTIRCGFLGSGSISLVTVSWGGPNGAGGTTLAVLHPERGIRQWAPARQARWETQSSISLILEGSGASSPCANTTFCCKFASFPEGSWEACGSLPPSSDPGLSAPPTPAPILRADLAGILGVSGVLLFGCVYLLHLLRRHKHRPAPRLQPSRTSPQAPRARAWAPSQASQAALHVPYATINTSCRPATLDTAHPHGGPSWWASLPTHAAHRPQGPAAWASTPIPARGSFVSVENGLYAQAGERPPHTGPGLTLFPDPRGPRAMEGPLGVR

T2: cynomolgus monkey PVRIG on FlpinCHO-cyno PVRIG cells (cynomolgus monkey, UniProt A0A2K5WVV8 41-322)
T2 construct: whole, on cells
T2 sequence: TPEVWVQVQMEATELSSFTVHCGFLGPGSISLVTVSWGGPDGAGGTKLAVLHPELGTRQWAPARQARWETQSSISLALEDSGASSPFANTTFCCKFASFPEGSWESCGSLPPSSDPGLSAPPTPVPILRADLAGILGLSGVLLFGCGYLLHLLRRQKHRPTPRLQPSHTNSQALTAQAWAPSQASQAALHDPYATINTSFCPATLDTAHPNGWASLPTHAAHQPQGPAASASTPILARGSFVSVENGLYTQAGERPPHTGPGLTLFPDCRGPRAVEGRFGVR


Legend:
[1] = target: T1, human PVRIG on FlpinCHO-PVRIG cells; experiment: FACS, FlpinCHO-PVRIG cells
Experimental: (§1) The Ham's F12 (Gibico, 21127-022) complete medium containing 10% FBS was then added to terminate the digestion and acquire cell suspension. After counting with a cell counter (Beckman Coulter, Vi-CELL), an appropriate amount of cell suspension was centrifuged at 350×g to remove the supernatant, washed twice with PBS, stained with Zombie violet (Biolegend, 423114) and incubated at room temperature for 20 minutes. After incubation, the cells were added with staining buffer (2% FBS+PBS) to stop staining, centrifuged at 350×g to remove the supernatant, washed twice and resuspended with staining buffer to a density of 2×10⁶ cells/mL. The cells were plated into a 96-well plate (50 μL of cell suspension per well) for further use. The antibodies were diluted from the highest concentration of 46 nM (two-fold concentration) with staining buffer by 3.3-fold serial dilution. The diluted antibodies were added to the well containing 50 μL of cell suspension. The plate was placed on a microplate shaker at 400 rpm for 1 minute to fully mix the antibodies and cells, and then incubated at 4° C. for 30 minutes. After the incubation, the cells were washed twice with staining buffer (200 μL per well) and centrifuged at 350×g for 5 minutes to discard the supernatant. The PE goat anti-human IgG Fc antibody (ebioscience, 12-4998-82) was diluted 250 times with staining buffer, added into the washed wells (100 μL per well), mixed well, and stained at 4° C. for 30 minutes. After staining, the cells were washed twice with staining buffer, finally resuspended with 200 μL staining buffer and analyzed by flow cytometry (BD, Canto II). The stronger the signal, the stronger the ability of the antibodies binds to PVRIG. An antibody binding curve was drawn with concentration of antibodies as the abscissa and the corresponding Mean Fluorescence Intensity (MFI) as the ordinate. The AUC value of the curve was calculated by using a Four Parameter Logistic Fit (GraphPadPrism9). The stronger the AUC value, the stronger the ability of the antibodies binds to FlpinCHO-PVRIG and FlpinCHO-cyno PVRIG. […] The binding activity of the antibodies was normalized to the positive control COM701-hIgG1 and SRF813-hIgG1.

[2] = target: T2, cynomolgus monkey PVRIG on …; experiment: FACS, FlpinCHO-cyno PVRIG cells
Experimental: as §1, with “The” for “The Ham's F12 (Gibico, 21127-022) complete medium containing 10% FBS was then added to terminate the digestion and acquire cell suspension. After counting with a cell counter (Beckman Coulter, Vi-CELL), an appropriate amount of cell suspension was centrifuged at 350×g to remove the supernatant, washed twice with PBS, stained with Zombie violet (Biolegend, 423114) and incubated at room temperature for 20 minutes. After incubation, the cells were added with staining buffer (2% FBS+PBS) to stop staining, centrifuged at 350×g to remove the supernatant, washed twice and resuspended with staining buffer to a density of 2×10⁶ cells/mL. The cells were plated into a 96-well plate (50 μL of cell suspension per well) for further use. The”, “SRF813-hIgG1. The higher the percentage value, the stronger the binding ability of the antibodies.” for “SRF813-hIgG1.”
The methods refer to Example 19. The stronger the AUC value, the stronger the ability of the humanized antibodies binds to FlpinCHO-human/cyno PVRIG.

AUC % to COM701-hIgG1 [1]	AUC % to SRF813-hIgG1 [1]	AUC % to parental Ab [1]	AUC % to COM701-hIgG1 [2]	AUC % to SRF813-hIgG1 [2]	AUC % to parental Ab [2]	Binder
73.4%	130%	100%	47.1%	57.8%	100%	PVRIG-A50 (Fc fusion, heavy chain antibody VHH-hinge-CH2-CH3, human IgG1 constant part; also called PVRIG-50; not shown: human IgG1 hinge-CH2-CH3) EVQLVESGGGLVQPGGSLRLSCAASGFTFSYYDMSWVRQAPGKGLEWVSTINSNGGRTSYVDSVKGRFTISRDNTKNTLYLQMNSLKPEDTAVYYCVEGDPHNFGLENLSLRDFGSWGQGTQVTVSS
61.9%	110%	84.4%	42.4%	52.1%	90.2%	PVRIG-A50-H2a (Fc fusion, humanized variant of PVRIG-A50; also called A50.VH2a; not shown: constant part not restated for the humanized forms; parents are VHH-hinge-CH2-CH3 of human IgG1; detected by anti-human) EVQLVESGGGLVQPGGSLRLSCAASGFTFSYYDMSWVRQAPGKGLEWVSTINSNAGRTSYVDSVKGRFTISRDNTKNTLYLQMNSLRAEDTAVYYCVEGDPHNFGLESLSLRDFGSWGQGTMVTVSS
69.2%	122%	94.2%	38.8%	47.6%	82.5%	PVRIG-A50-H1c (Fc fusion, humanized variant of PVRIG-A50; also called A50.VH1c; not shown: constant part not restated for the humanized forms; parents are VHH-hinge-CH2-CH3 of human IgG1; detected by anti-human) EVQLVESGGGLVQPGGSLRLSCAASGFTFSYYDMSWVRQAPGKGLEWVSTINSDGGRTSYVDSVKGRFTISRDNSKNTLYLQMNSLRAEDTAVYYCVEGDPHNFGLENLALRDFGSWGQGTMVTVSS
70.4%	125%	96%	40.7%	50%	86.5%	PVRIG-A50-H1a (Fc fusion, humanized variant of PVRIG-A50; also called A50.VH1a; not shown: constant part not restated for the humanized forms; parents are VHH-hinge-CH2-CH3 of human IgG1; detected by anti-human) EVQLVESGGGLVQPGGSLRLSCAASGFTFSYYDMSWVRQAPGKGLEWVSTINSDGGRTSYVDSVKGRFTISRDNSKNTLYLQMNSLRAEDTAVYYCVEGDPHNFGLENLSLRDFGSWGQGTMVTVSS
60.5%	107%	82.5%	34.4%	42.2%	73.1%	PVRIG-A50-H1b (Fc fusion, humanized variant of PVRIG-A50; also called A50.VH1b; not shown: constant part not restated for the humanized forms; parents are VHH-hinge-CH2-CH3 of human IgG1; detected by anti-human) EVQLVESGGGLVQPGGSLRLSCAASGFTFSYYDMSWVRQAPGKGLEWVSTINSDGGRTSYVDSVKGRFTISRDNSKNTLYLQMNSLRAEDTAVYYCVEGDPHNFGLESLSLRDFGSWGQGTMVTVSS
60.3%	107%	82.2%	43.3%	53.2%	92%	PVRIG-A50-H1e (Fc fusion, humanized variant of PVRIG-A50; also called VH1e; not shown: constant part not restated for the humanized forms; parents are VHH-hinge-CH2-CH3 of human IgG1; detected by anti-human) EVQLVESGGGLVQPGGSLRLSCAASGFTFSYYDMSWVRQAPGKGLEWVSTINSNAGRTSYVDSVKGRFTISRDNSKNTLYLQMNSLRAEDTAVYYCVEGDPHNFGLESLSLRDFGSWGQGTMVTVSS
136%	191%	100%	62.4%	76.1%	100%	PVRIG-A118 (Fc fusion, heavy chain antibody VHH-hinge-CH2-CH3, human IgG1 constant part; not shown: human IgG1 hinge-CH2-CH3) QVQLVESGGGLVQAGGSLRLSCAASETYFDLYVMGWYRQAPGKDRELVATITYTGSIKIVDSVKDRFTISRGDAKNTVSLQMSSLKPEDTAVYFCNADPSGLGRKVYWGQGTQVTVSS
129%	180%	94.2%	19.9%	24.2%	31.8%	PVRIG-A118-H6 (Fc fusion, humanized variant of PVRIG-A118; also called A118.VH6; not shown: constant part not restated for the humanized forms; parents are VHH-hinge-CH2-CH3 of human IgG1; detected by anti-human) EVQLVESGGGLVQPGGSLRLSCAASETYFDLYVMGWYRQAPGKDRELVATITYTGSIKIVDSVKGRFTISRGDAKNSLYLQMNSLRAEDTAVYYCNADPSGLGRKVYWGQGTMVTVSS
128%	179%	93.9%	21.8%	26.6%	35%	PVRIG-A118-H5 (Fc fusion, humanized variant of PVRIG-A118; also called A118.VH5; not shown: constant part not restated for the humanized forms; parents are VHH-hinge-CH2-CH3 of human IgG1; detected by anti-human) EVQLVESGGGLVQPGGSLRLSCAASETYFDLYVMGWYRQAPGKDRELVATITYTGSIKYVDSVKGRFTISRGDAKNSVYLQMNSLRAEDTAVYYCNADPSGLGRKVYWGQGTMVTVSS
132%	185%	97%	21.3%	26%	34.2%	PVRIG-A118-H4 (Fc fusion, humanized variant of PVRIG-A118; also called A118.VH4; not shown: constant part not restated for the humanized forms; parents are VHH-hinge-CH2-CH3 of human IgG1; detected by anti-human) EVQLVESGGGLVQPGGSLRLSCAASETYFDLYVMGWYRQAPGKDRELVATITYTGSIKYVDSVKGRFTISRGDAKNSLSLQMNSLRAEDTAVYYCNADPSGLGRKVYWGQGTMVTVSS
124%	186%	100%	87.5%	108%	100%	PVRIG-A105 (Fc fusion, heavy chain antibody VHH-hinge-CH2-CH3, human IgG1 constant part; not shown: human IgG1 hinge-CH2-CH3) EVQLVESGGGLVQAGGSLRLSCAASGRTFDRHTMTWFRQAPGKEREFVATASRIPGDTYYSHSVKGRFTISRDNAKNTVYLQLNNLKPEDTAVYYCAATSAYCSEVDCYEKGSWYDNWGQGIQVTVSS
123%	185%	99.1%	81.3%	101%	93%	PVRIG-A105-H1 (Fc fusion, humanized variant of PVRIG-A105; also called A105.VH1; not shown: constant part not restated for the humanized forms; parents are VHH-hinge-CH2-CH3 of human IgG1; detected by anti-human) EVQLVESGGGLVQPGGSLRLSCAASGRTFDRHTMSWFRQAPGKEREFVATASRIPGDTYYVDSVKGRFTISRDNAKNSLYLQMNSLRAEDTAVYYCAATSAYCSEVDCYEKGSWYDNWGQGTMVTVSS
125%	189%	101%	86.4%	107%	98.8%	PVRIG-A105-H3 (Fc fusion, humanized variant of PVRIG-A105; also called A105.VH3; not shown: constant part not restated for the humanized forms; parents are VHH-hinge-CH2-CH3 of human IgG1; detected by anti-human) EVQLVESGGGLVQPGGSLRLSCAASGRTFDRHTMTWFRQAPGKEREFVATASRIPGDTYYVDSVKGRFTISRDNAKNSVYLQMNSLRAEDTAVYYCAATSAYCSEVDCYEKGSWYDNWGQGTMVTVSS
115%	174%	93.1%	80.3%	99.6%	91.8%	PVRIG-A105-H4 (Fc fusion, humanized variant of PVRIG-A105; also called A105.VH4; not shown: constant part not restated for the humanized forms; parents are VHH-hinge-CH2-CH3 of human IgG1; detected by anti-human) EVQLVESGGGLVQPGGSLRLSCAASGRTFDRHTMTWFRQAPGKEREFVATASRIPGDTYYSHSVKGRFTISRDNAKNSLYLQMNSLRAEDTAVYYCAATSAYCSEVDCYEKGSWYDNWGQGTMVTVSS
